This is an account of results in the RNAGym collection of RNA variant scans (doi:10.7554/elife.80360).

First the molecules themselves.
B1: Hammerhead Ribozyme (parent)
chain: ACCGGAUGUGCUUUCCGGUCUGAUGAGUCCGUGAGGACGAAACAG

Variants of B1 are the subject of this data set. As to the kind of experiment: self-cleavage, relative activity (ratio to wild type); higher = more cleavage; co-transcriptional.
Take C11G C30G: the self-cleavage was determined as 1.22.
Then G31A G39C, with 0.377; and C2U U7G, with 1.72.
Then A26U G39U, with 0.296.
Then U12C U24A, with 1.04; and U12C A37G, with 0.915; and U12A A40G, with 0.315.
Take U24G U32C: the self-cleavage turned out to be 0.858.
Consider G5U A40C, for which the self-cleavage is 0.375.
The same measure for G27U C38U: 0.683; for C15U A44U: 0.664.
The same measure for U9G G27A: 0.449; for U24A A42C: 0.363.
With U19A A26C, the self-cleavage was found to be 0.364.
The same measure for A6C G8U: 0.633.
The same measure for U21C U24C: 0.909.
Take A6U G25U: the self-cleavage turned out to be 0.355.
The same measure for U13C U14G: 0.364; for C16U C30A: 0.831; for C3A U7A: 0.687.
The same measure for U21C G31U: 0.83.
The same measure for G5A C15G: 1.53; for U28G A37C: 0.919; for U14A A23U: 0.272.
G17A C30U: the self-cleavage was found to be 0.622.
The same measure for G18C A26G: 0.319.
The same measure for A1U U14A: 0.353; for U9C A44G: 1.32.
Then U19C G33C, with 0.38; and G8U G17C, with 0.509.
For the variant C11U C15A, the self-cleavage was determined as 1.02.
Then G18U A26G, with 0.339.
As to U9A A44G, the self-cleavage was found to be 1.46.
Then G5C A44C, with 0.345.
Then U19G G39U, with 0.305; and C16U G25C, with 0.265; and C20A C30A, with 0.286.
The same measure for U32G A34G: 0.65; for C11U G27U: 0.487.
Consider G22A U24A, for which the self-cleavage came to 0.378.
Then G10C C20U, with 0.487.
With C3G G5A, the self-cleavage was found to be 0.57.
Regarding U19G A41U, the self-cleavage was found to be 0.342.
Then C29A U32G, with 0.504.
For U7C G22U, the self-cleavage worked out at 0.289.
Then C16A C38U, with 0.85; and U13A G33C, with 1.25.
Then U13A G33U, with 1.46.
Then G33U A37U, with 0.972; and G27C G45C, with 0.493; and U7C G39C, with 0.331.
With U7C G39U, the self-cleavage amounted to 0.426.
In the case of G27U G39U, the self-cleavage is 0.297.
Take U21C A34C: the self-cleavage was determined as 0.316.
The same measure for C15U U24A: 0.853.
The same measure for U28A G39C: 0.382.
The same measure for A1G G36C: 0.654; for C16G U19G: 0.33.
Turning to G10U G35A, the self-cleavage came to 0.838.
The same measure for U21G A42G: 0.223.
With G10C G25C, the self-cleavage was 0.397.
For G10C G25A, the self-cleavage amounted to 0.368.
With G8C C15U, the self-cleavage turned out to be 1.26.
Then U32C A34U, with 0.738; and G4C U21A, with 0.309.
With C3A G8A, the self-cleavage came to 0.629.
Then C30U G35A, with 1.02.
Then G25U A40G, with 0.328.
Then G18C U32G, with 0.503; and G27U A41G, with 0.312.
As to C3A G31C, the self-cleavage came to 0.791.
In the case of G22A G36A, the self-cleavage stood at 0.361.
With A40U C43G, the self-cleavage came out at 0.287.
The same measure for G8U G27U: 0.554.
For G33C G39A, the self-cleavage was determined as 0.332.
As to C20G G39U, the self-cleavage is 0.316.
Then U13C G45U, with 0.965.
The same measure for U14A U24G: 1.12; for U14A U24A: 0.627.
The same measure for G35U A37U: 0.52; for A6U U19G: 0.395; for U12A G39C: 0.338.
With G4U A23G, the self-cleavage was found to be 0.303.
Then G10A C20G, with 0.303; and C20G G45A, with 0.356; and G17A U28G, with 0.567.
Then A1G U21C, with 0.949; and G5A A40C, with 0.476.
Then U21A C29A, with 0.31; and U12G C16A, with 1.18; and A1C U12A, with 0.471.
For U7C A26U, the self-cleavage stood at 0.48.
The same measure for U13G G35C: 0.819.
Consider G8C C30U, for which the self-cleavage worked out at 0.981.
Consider G10C C15U, for which the self-cleavage is 1.01.
C3G C20A: the self-cleavage came to 0.295.
Then G18C A40G, with 0.369; and A23C C38A, with 0.327.
The same measure for A34G G36A: 0.51; for G36A C38U: 0.531.
As for G36C A41C, the self-cleavage is 0.364.
For the variant G18U G36A, the self-cleavage is 0.621.
The same measure for G27C A37G: 0.677; for G18A U32A: 0.778.
Then G35A G45A, with 0.452; and C15G U21C, with 0.275; and C15G U21A, with 0.424.
The same measure for G5C C30G: 0.314.
C11U G39A: the self-cleavage worked out at 0.383.
As for U12A A44C, the self-cleavage was 0.481.
Then G4U G22A, with 0.297; and G17A G39U, with 0.316.
The same measure for G10U C29U: 0.94.
The same measure for G5U C43U: 0.371.
As to C11U C30G, the self-cleavage stood at 0.714.
The same measure for G35C: 0.791; for C3U G10C: 1.05; for U28C G39A: 0.291.
Then G4C C43A, with 0.285.
The same measure for A1C C15U: 0.408; for A1C A42C: 0.336; for C3U A6G: 0.747.
C38U A42U: the self-cleavage is 0.317.
The same measure for U13C G31A: 1.04; for U21G G27C: 0.4; for C11U U21A: 0.697.
Then U13A G27C, with 0.823; and U19A U24A, with 0.465; and G4U C11U, with 0.319.
The same measure for A1U G27U: 0.417.
For the variant C38G, the self-cleavage came to 0.767.
The same measure for A1U A40C: 0.387; for C16U G31A: 0.731.
Regarding A6G G17C, the self-cleavage is 0.494.
A6G U24G: the self-cleavage came to 0.777.
The same measure for C11G G31U: 1.34; for U13C U32A: 0.668; for A34C G45C: 0.441.
Then G17A A37G, with 0.604; and U19A A37U, with 0.281; and G18A G36A, with 0.544.
A6C G39U: the self-cleavage is 0.271.
With G31C A34C, the self-cleavage was determined as 1.
Then G17U A23U, with 0.35.
Then A1G C29A, with 0.835.
Then C15U U21A, with 0.595.
In the case of U14C C16A, the self-cleavage came out at 0.931.
On to G5A G35C, for which the self-cleavage came to 0.66.
Consider G4A U24A, for which the self-cleavage came to 0.682.
Then G18A G31A, with 1.05; and G10A C30G, with 0.783.
U7G C16U: the self-cleavage stood at 1.4.
The same measure for A23G G33C: 0.376; for C16A U21G: 0.316.
In the case of A42U C43U, the self-cleavage stood at 0.247.
The same measure for G17C U28A: 0.391; for C3G U9C: 0.574.
For the variant U24A G31A, the self-cleavage came out at 1.15.
Then C38G G45U, with 0.562.
Take A41U A42C: the self-cleavage amounted to 0.271.
The same measure for U14G C38U: 0.796; for C15A: 0.93; for A26U G36A: 0.458.
The same measure for C15U G25U: 0.314; for A26C U32C: 0.803.
Then G5A C38A, with 0.65; and A26U A42C, with 0.293.
